Source: patent publication US20200199204A1 (UNITED STATES OF AMERICA AS REPRESENTED BY THE SECRETARY …, published 2020)

How the values were obtained:
Assay in all cases: cell-based or functional assay
HIV-1 Env of CAP210.E8 = HIV-1 Env of CAP210.E8 (HIV-1)
HIV-1 Env of TRJO.58 = HIV-1 Env of TRJO.58 (HIV-1)
HIV-1 Env of C1080.c3 = HIV-1 Env of C1080.c3 (HIV-1)
HIV-1 Env of DU156.12 = HIV-1 Env of DU156.12 (HIV-1)
HIV-1 Env of ZM197.7 = HIV-1 Env of ZM197.7 (HIV-1)
HIV-1 Env of 3016.V5.c36 = HIV-1 Env of 3016.V5.c36 (HIV-1)
HIV-1 Env of REJO.67 = HIV-1 Env of REJO.67 (HIV-1)
HIV-1 Env of CAP244.D3 = HIV-1 Env of CAP244.D3 (HIV-1)
HIV-1 Env of DU422.01 = HIV-1 Env of DU422.01 (HIV-1)
HIV-1 Env of WITO.33 = HIV-1 Env of WITO.33 (HIV-1)
HIV-1 Env of ZM214.15 = HIV-1 Env of ZM214.15 (HIV-1)
HIV-1 Env of UG037.8 = HIV-1 Env of UG037.8 (HIV-1)
HIV-1 Env of Q259.d2.17 = HIV-1 Env of Q259.d2.17 (HIV-1)
HIV-1 Env of Q769.d22 = HIV-1 Env of Q769.d22 (HIV-1)
HIV-1 Env of KER2008.12 = HIV-1 Env of KER2008.12 (HIV-1)
HIV-1 Env of ZM233.6 = HIV-1 Env of ZM233.6 (HIV-1)
HIV-1 Env of AC10.29 = HIV-1 Env of AC10.29 (HIV-1)
HIV-1 Env of MB201 = HIV-1 Env of MB201 (HIV-1)
HIV-1 Env of 6535.3 = HIV-1 Env of 6535.3 (HIV-1)
HIV-1 Env of CAAN.A2 = HIV-1 Env of CAAN.A2 (HIV-1)
HIV-1 Env of 191821.E6.1 = HIV-1 Env of 191821.E6.1 (HIV-1)
HIV-1 Env of TRO.11 = HIV-1 Env of TRO.11 (HIV-1)
HIV-1 Env of Q23.17 = HIV-1 Env of Q23.17 (HIV-1)
HIV-1 Env of QH0692.42 = HIV-1 Env of QH0692.42 (HIV-1)
HIV-1 Env of 6405.v4.c34 = HIV-1 Env of 6405.v4.c34 (HIV-1)
HIV-1 Env of CAP45.G3 = HIV-1 Env of CAP45.G3 (HIV-1)
HIV-1 Env of RHPA.7 = HIV-1 Env of RHPA.7 (HIV-1)
HIV-1 Env of RW020.2 = HIV-1 Env of RW020.2 (HIV-1)
HIV-1 Env of BG505.w6m = HIV-1 Env of BG505.w6m (HIV-1)
HIV-1 Env of 96ZM651.02 = HIV-1 Env of 96ZM651.02 (HIV-1)
HIV-1 Env of PVO.04 = HIV-1 Env of PVO.04 (HIV-1)
HIV-1 Env of MB539.2B7 = HIV-1 Env of MB539.2B7 (HIV-1)
HIV-1 Env of KER2018.11 = HIV-1 Env of KER2018.11 (HIV-1)
HIV-1 Env of DU172.17 = HIV-1 Env of DU172.17 (HIV-1)
HIV-1 Env of SC422.8 = HIV-1 Env of SC422.8 (HIV-1)
HIV-1 Env of CAP256.PI = HIV-1 Env of CAP256.PI (HIV-1)
HIV-1 Env of Q461.e2 = HIV-1 Env of Q461.e2 (HIV-1)
HIV-1 Env of Q168.a2 = HIV-1 Env of Q168.a2 (HIV-1)
HIV-1 Env of CM244.ec1 = HIV-1 Env of CM244.ec1 (HIV-1)
HIV-1 Env of ZM249.1 = HIV-1 Env of ZM249.1 (HIV-1)
HIV-1 Env of ZM53.12 = HIV-1 Env of ZM53.12 (HIV-1)
HIV-1 Env of 0260.v5.c36 = HIV-1 Env of 0260.v5.c36 (HIV-1)
HIV-1 Env of THRO.18 = HIV-1 Env of THRO.18 (HIV-1)
HIV-1 Env of CAP256.SU = HIV-1 Env of CAP256.SU (HIV-1)
HIV-1 Env of ZM109.4 = HIV-1 Env of ZM109.4 (HIV-1)
HIV-1 Env of Q842.d12 = HIV-1 Env of Q842.d12 (HIV-1)
HIV-1 Env of ZM135.10a = HIV-1 Env of ZM135.10a (HIV-1)

B1: CAP256-VRC26.09 (antibody, V domains shown)
VH: EVQLVESGGGVVQPGRSLTLSCAASQFNFANYGMHWVRQAPGKGLEWVASISNDGTKKYHEESVWGRFTISKDNSKSTLFLQMNSLRIEDTALYFCVKDQREDECEEWWSDYYDFGRELPCRKSRGLGLAGIFDMWGHGTMVTVSS
VL: QSALTQPPSVSAAPGQKVTISCSGNSSNIGNNFVSWYQQLPGTAPKLLIYENNRRPSGIPDRFSGSKSGTSATLAISGLQTGDEADYWCAVWGVRRGAGAVFGAGTKVTVLG
HIV-1 Env of CAP210.E8
  neutralization IC50: 0.002 µg/mL
HIV-1 Env of TRJO.58
  neutralization IC50: > 50 µg/mL
HIV-1 Env of C1080.c3
  neutralization IC50: 0.019 µg/mL
HIV-1 Env of DU156.12
  neutralization IC50: 0.016 µg/mL
HIV-1 Env of ZM197.7
  neutralization IC50: 0.011 µg/mL
HIV-1 Env of 3016.V5.c36
  neutralization IC50: 0.004 µg/mL
HIV-1 Env of REJO.67
  neutralization IC50: > 50 µg/mL
HIV-1 Env of CAP244.D3
  neutralization IC50: > 50 µg/mL
HIV-1 Env of DU422.01
  neutralization IC50: 0.023 µg/mL
HIV-1 Env of WITO.33
  neutralization IC50: > 50 µg/mL
HIV-1 Env of ZM214.15
  neutralization IC50: 0.333 µg/mL
HIV-1 Env of UG037.8
  neutralization IC50: > 50 µg/mL
HIV-1 Env of Q259.d2.17
  neutralization IC50: 0.008 µg/mL
HIV-1 Env of Q769.d22
  neutralization IC50: > 50 µg/mL
HIV-1 Env of KER2008.12
  neutralization IC50: > 50 µg/mL
HIV-1 Env of ZM233.6
  neutralization IC50: 0.001 µg/mL
HIV-1 Env of AC10.29
  neutralization IC50: > 50 µg/mL
HIV-1 Env of MB201
  neutralization IC50: > 50 µg/mL
HIV-1 Env of 6535.3
  neutralization IC50: > 50 µg/mL
HIV-1 Env of CAAN.A2
  neutralization IC50: > 50 µg/mL
HIV-1 Env of 191821.E6.1
  neutralization IC50: 0.054 µg/mL
HIV-1 Env of TRO.11
  neutralization IC50: > 50 µg/mL
HIV-1 Env of Q23.17
  neutralization IC50: 9.5 µg/mL
HIV-1 Env of QH0692.42
  neutralization IC50: > 50 µg/mL
HIV-1 Env of 6405.v4.c34
  neutralization IC50: > 50 µg/mL
HIV-1 Env of CAP45.G3
  neutralization IC50: 16 µg/mL
HIV-1 Env of RHPA.7
  neutralization IC50: > 50 µg/mL
HIV-1 Env of RW020.2
  neutralization IC50: > 50 µg/mL
HIV-1 Env of BG505.w6m
  neutralization IC50: 0.054 µg/mL
HIV-1 Env of 96ZM651.02
  neutralization IC50: 0.991 µg/mL
HIV-1 Env of PVO.04
  neutralization IC50: > 50 µg/mL
HIV-1 Env of MB539.2B7
  neutralization IC50: 40.7 µg/mL
HIV-1 Env of KER2018.11
  neutralization IC50: 0.002 µg/mL
HIV-1 Env of DU172.17
  neutralization IC50: > 50 µg/mL
HIV-1 Env of SC422.8
  neutralization IC50: > 50 µg/mL
HIV-1 Env of CAP256.PI
  neutralization IC50: > 50 µg/mL
HIV-1 Env of Q461.e2
  neutralization IC50: 0.705 µg/mL
HIV-1 Env of Q168.a2
  neutralization IC50: 0.181 µg/mL
HIV-1 Env of CM244.ec1
  neutralization IC50: 0.105 µg/mL
HIV-1 Env of ZM249.1
  neutralization IC50: 0.01 µg/mL
HIV-1 Env of ZM53.12
  neutralization IC50: 0.002 µg/mL
HIV-1 Env of 0260.v5.c36
  neutralization IC50: > 50 µg/mL
HIV-1 Env of THRO.18
  neutralization IC50: > 50 µg/mL
HIV-1 Env of CAP256.SU
  neutralization IC50: 0.002 µg/mL
HIV-1 Env of ZM109.4
  neutralization IC50: > 50 µg/mL
HIV-1 Env of Q842.d12
  neutralization IC50: 10.1 µg/mL
HIV-1 Env of ZM135.10a
  neutralization IC50: > 50 µg/mL

B2: CAP256-VRC26.10 (antibody, V domains shown)
VH: QAILVESGGGVVQPGRSLRLSCAASQFTFSGHGLHWVRQAPGKGLEWVASISFAGTKMDYADSVKGRFAISRDNSKNTLYLQMNSLRVEDTALYYCAKDMREYECEYWTSDYYDFGRPQPCIDRRGVVGIFDMWGQGTMVTVST
VL: QSVLTQPPSVSAAPGQKVTISCSGSSSNIGDNYVSWYQHLPGTAPKLLIYENTRRPSGIPDRFSGSKSGTSATLAITGLQTGDEADYYCGTWDVRPNRGAVFGTGTKVTVLG
HIV-1 Env of CAP210.E8
  neutralization IC50: 0.1 µg/mL
HIV-1 Env of TRJO.58
  neutralization IC50: > 50 µg/mL
HIV-1 Env of C1080.c3
  neutralization IC50: > 50 µg/mL
HIV-1 Env of DU156.12
  neutralization IC50: > 50 µg/mL
HIV-1 Env of ZM197.7
  neutralization IC50: 0.346 µg/mL
HIV-1 Env of 3016.V5.c36
  neutralization IC50: 0.017 µg/mL
HIV-1 Env of REJO.67
  neutralization IC50: > 50 µg/mL
HIV-1 Env of CAP244.D3
  neutralization IC50: > 50 µg/mL
HIV-1 Env of DU422.01
  neutralization IC50: 8.2 µg/mL
HIV-1 Env of WITO.33
  neutralization IC50: > 50 µg/mL
HIV-1 Env of ZM214.15
  neutralization IC50: > 50 µg/mL
HIV-1 Env of UG037.8
  neutralization IC50: > 50 µg/mL
HIV-1 Env of Q259.d2.17
  neutralization IC50: 24.6 µg/mL
HIV-1 Env of Q769.d22
  neutralization IC50: > 50 µg/mL
HIV-1 Env of KER2008.12
  neutralization IC50: > 50 µg/mL
HIV-1 Env of ZM233.6
  neutralization IC50: 0.228 µg/mL
HIV-1 Env of AC10.29
  neutralization IC50: > 50 µg/mL
HIV-1 Env of MB201
  neutralization IC50: > 50 µg/mL
HIV-1 Env of 6535.3
  neutralization IC50: > 50 µg/mL
HIV-1 Env of CAAN.A2
  neutralization IC50: > 50 µg/mL
HIV-1 Env of 191821.E6.1
  neutralization IC50: > 50 µg/mL
HIV-1 Env of TRO.11
  neutralization IC50: > 50 µg/mL
HIV-1 Env of Q23.17
  neutralization IC50: 2.59 µg/mL
HIV-1 Env of QH0692.42
  neutralization IC50: > 50 µg/mL
HIV-1 Env of 6405.v4.c34
  neutralization IC50: > 50 µg/mL
HIV-1 Env of CAP45.G3
  neutralization IC50: > 50 µg/mL
HIV-1 Env of RHPA.7
  neutralization IC50: > 50 µg/mL
HIV-1 Env of RW020.2
  neutralization IC50: > 50 µg/mL
HIV-1 Env of BG505.w6m
  neutralization IC50: > 50 µg/mL
HIV-1 Env of 96ZM651.02
  neutralization IC50: > 50 µg/mL
HIV-1 Env of PVO.04
  neutralization IC50: 2.48 µg/mL
HIV-1 Env of MB539.2B7
  neutralization IC50: > 50 µg/mL
HIV-1 Env of KER2018.11
  neutralization IC50: 0.335 µg/mL
HIV-1 Env of DU172.17
  neutralization IC50: > 50 µg/mL
HIV-1 Env of SC422.8
  neutralization IC50: > 50 µg/mL
HIV-1 Env of CAP256.PI
  neutralization IC50: > 50 µg/mL
HIV-1 Env of Q461.e2
  neutralization IC50: > 50 µg/mL
HIV-1 Env of Q168.a2
  neutralization IC50: > 50 µg/mL
HIV-1 Env of CM244.ec1
  neutralization IC50: 0.914 µg/mL
HIV-1 Env of ZM249.1
  neutralization IC50: > 50 µg/mL
HIV-1 Env of ZM53.12
  neutralization IC50: 0.072 µg/mL
HIV-1 Env of 0260.v5.c36
  neutralization IC50: > 50 µg/mL
HIV-1 Env of THRO.18
  neutralization IC50: > 50 µg/mL
HIV-1 Env of CAP256.SU
  neutralization IC50: 0.031 µg/mL
HIV-1 Env of ZM109.4
  neutralization IC50: > 50 µg/mL
HIV-1 Env of Q842.d12
  neutralization IC50: > 50 µg/mL
HIV-1 Env of ZM135.10a
  neutralization IC50: > 50 µg/mL
